± gives the standard deviation of the averaged measurements.
Assays:
[1] = test system: VchCAST RNA-guided transposition machinery (E. coli BL21(DE3) host, lacZ target); test: relative integration efficiency (T-LR orientation) vs wild-type transposon end (log2 (normalized fold change)); transposon end mutated: right end (5 bp flank + 75 bp right end); higher = more efficient transposition
Outline: (§1)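 Each barcoded pool, 1549 left-end or 1849 right-end transposon variants in a pUC57 mini-transposon donor, went into E. coli BL21(DE3) with a T7-driven effector plasmid (CRISPR array, tniQ-cas8-cas7-cas6, tnsA-tnsB-tnsC). Plates contained 0.1 mM IPTG and were held at 37°C for 18 h. Input plasmids and genomic integration junctions were PCR-amplified and read by Illumina sequencing, with two biological output replicates and four reference barcodes. Relative integration efficiency is the fold change of output over input barcode abundance, normalised to the reference barcodes and log-transformed.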

[2] = test system: VchCAST RNA-guided transposition machinery (E. coli BL21(DE3) host, lacZ target); test: relative integration efficiency (T-RL orientation) vs wild-type transposon end (log2 (normalized fold change)); transposon end mutated: right end (5 bp flank + 75 bp right end); higher = more efficient transposition
Outline: as §1

Sequence | relative integration efficiency (log2) [1] | relative integration efficiency (log2) [2]
ACATTTGTACTAACAACCATAAAATGATAATTACACCCATAAATTGATAATTATCACACCCATAAATTGATATTGCCTCTGATCATAGTCAGACCAACATTGCTACGACCCGTATTCGCACCGACAC | -4.23 ± 0.45 | -1.43 ± 0.32
ACATTTGTAGAAAAAACCATACGTTGATTTTACGAAACCATACGCTGAAATAATCACACCCATAAATTGATATTGCCTCTGATCATAGTCAGACCAACATTGCTACGACCCGTATTCGCACCGACAC | -5.68 ± 1.4 | -6.62 ± 0.1
ACATTTGTAGATAAAACCATACGTTGATTTTACGAAACCATACGCTGAAATAATCACACCCATAAATTGATATTGCCTCTGATCATAGTCAGACCAACATTGCTACGACCCGTATTCGCACCGACAC | -5.26 ± 0.89 | -6.57 ± 0.4
ACATTTGTCAACCATAAAATGATAATTACACCCATAAATTGATAATTATCACACCCATAAATTGATATTGCCTCTGATCATAGTCAGACCAACATTGCTACGACCCGTATTCGCACCGACACTGACT | -4.8 ± 0.66 | -6.76 ± 0.31
ACATTTGTCGATACAACCATAAAACGATAATTACACCCATAAATGGATAATTATCACACCCAATTTAACTATAACGCTCTGATCATAGTCAGACCAACATTGCTACGACCCGTATTCGCACCGACAC | 1.85 ± 0.05 | -1.19 ± 0.15
ACATTTGTCGATACAACCATAAAACGATAATTACACCCATAAATGGATCATTATCACACCCAATTTAACTATAACGCTCTGATCATAGTCAGACCAACATTGCTACGACCCGTATTCGCACCGACAC | 0.741 ± 0.05 | -1.91 ± 0.19
ACATTTGTCGATACAACCATAAAACGATAATTACACCCATAAATTCATAATTATCACACCCAATTTAACTATAACGCTCTGATCATAGTCAGACCAACATTGCTACGACCCGTATTCGCACCGACAC | 1.06 ± 0.15 | -2.45 ± 0.33
ACATTTGTCGATACAACCATAAAACGATAATTACACCCATAAATTCATCATTATCACACCCAATTTAACTATAACGCTCTGATCATAGTCAGACCAACATTGCTACGACCCGTATTCGCACCGACAC | 1.48 ± 0.17 | -2.2 ± 0.19
ACATTTGTCGATACAACCATAAAACGATAATTACACCCATAAATTGATAATTATCACACCCAATTTAACTATAACGCTCTGATCATAGTCAGACCAACATTGCTACGACCCGTATTCGCACCGACAC | 2.07 ± 0.094 | -1.38 ± 0.25
ACATTTGTCGATACAACCATAAAACGATAATTACACCCATAAATTGATCATTATCACACCCAATTTAACTATAACGCTCTGATCATAGTCAGACCAACATTGCTACGACCCGTATTCGCACCGACAC | 1.9 ± 0.036 | -1.88 ± 0.3
ACATTTGTCGATACAACCATAAAATGATAATTACACCCATAAATGGATAATTATCACACCCAATTTAACTATAACGCTCTGATCATAGTCAGACCAACATTGCTACGACCCGTATTCGCACCGACAC | 1.69 ± 0.097 | -1.05 ± 0.18
ACATTTGTCGATACAACCATAAAATGATAATTACACCCATAAATGGATAATTATCACCCCCAATTTAACTATAACGCTCTGATCATAGTCAGACCAACATTGCTACGACCCGTATTCGCACCGACAC | 1.38 ± 0.025 | -1.38 ± 0.18
ACATTTGTCGATACAACCATAAAATGATAATTACACCCATAAATGGATCATTATCACACCCAATTTAACTATAACGCTCTGATCATAGTCAGACCAACATTGCTACGACCCGTATTCGCACCGACAC | 0.97 ± 0.063 | -1.61 ± 0.16
ACATTTGTCGATACAACCATAAAATGATAATTACACCCATAAATGGATCATTATCACCCCCAATTTAACTATAACGCTCTGATCATAGTCAGACCAACATTGCTACGACCCGTATTCGCACCGACAC | 1.19 ± 0.086 | -1.61 ± 0.32
ACATTTGTCGATACAACCATAAAATGATAATTACACCCATAAATTCATAATTATCACACCCAATTTAACTATAACGCTCTGATCATAGTCAGACCAACATTGCTACGACCCGTATTCGCACCGACAC | 1.2 ± 0.05 | -1.92 ± 0.14
ACATTTGTCGATACAACCATAAAATGATAATTACACCCATAAATTCATAATTATCACCCCCAATTTAACTATAACGCTCTGATCATAGTCAGACCAACATTGCTACGACCCGTATTCGCACCGACAC | 1.18 ± 0.19 | -1.83 ± 0.51
ACATTTGTCGATACAACCATAAAATGATAATTACACCCATAAATTCATCATTATCACACCCAATTTAACTATAACGCTCTGATCATAGTCAGACCAACATTGCTACGACCCGTATTCGCACCGACAC | 1.45 ± 0.14 | -2.26 ± 0.23
ACATTTGTCGATACAACCATAAAATGATAATTACACCCATAAATTCATCATTATCACCCCCAATTTAACTATAACGCTCTGATCATAGTCAGACCAACATTGCTACGACCCGTATTCGCACCGACAC | 1.54 ± 0.23 | -1.99 ± 0.23

Sequence | relative integration efficiency (log2) [1] | relative integration efficiency (log2) [2]
ACATTTGTCGATACAACCATAAAATGATAATTACACCCATAAATTGATAATTATCACCCCCAATTTAACTATAACGCTCTGATCATAGTCAGACCAACATTGCTACGACCCGTATTCGCACCGACAC | 2.59 ± 0.2 | -0.936 ± 0.32
ACATTTGTCGATACAACCATAAAATGATAATTACACCCATAAATTGATCATTATCACACCCAATTTAACTATAACGCTCTGATCATAGTCAGACCAACATTGCTACGACCCGTATTCGCACCGACAC | 2.328 ± 0.013 | -1.31 ± 0.23
ACATTTGTCGATACAACCATAAAATGATAATTACACCCATAAATTGATCATTATCACCCCCAATTTAACTATAACGCTCTGATCATAGTCAGACCAACATTGCTACGACCCGTATTCGCACCGACAC | 2.13 ± 0.24 | -1.31 ± 0.19
ACATTTGTCGATACAACCATAAAATGATAATTACCACCCATAAATTGATAATTATCACACCCATTTAACTATAACGCTCTGATCATAGTCAGACCAACATTGCTACGACCCGTATTCGCACCGACAC | 1.62 ± 0.092 | -1.12 ± 0.076
ACATTTGTCGATACAACCATAAAATGATAATTACCACCCATACATTGATAATTATCACACCCATTTAACTATAACGCTCTGATCATAGTCAGACCAACATTGCTACGACCCGTATTCGCACCGACAC | 0.0639 ± 0.32 | -2.37 ± 0.32
ACATTTGTCGATACAACCATAAAATGATAATTACCACCCCTAAATTGATAATTATCACACCCATTTAACTATAACGCTCTGATCATAGTCAGACCAACATTGCTACGACCCGTATTCGCACCGACAC | -0.156 ± 0.26 | -3.12 ± 0.048
ACATTTGTCGATACAACCATAAAATGATAATTACCACCCCTACATTGATAATTATCACACCCATTTAACTATAACGCTCTGATCATAGTCAGACCAACATTGCTACGACCCGTATTCGCACCGACAC | -0.393 ± 0.058 | -3.06 ± 0.23
ACATTTGTCGATACAACCATAAAATGATAATTCACCCATAAATTGATAATTATCACACCCCAATTTAACTATAACGCTCTGATCATAGTCAGACCAACATTGCTACGACCCGTATTCGCACCGACAC | 1.05 ± 0.034 | -2.26 ± 0.28
ACATTTGTCGATACAACCATAAAATGATAATTCACCCATCAATTGATAATTATCACACCCCAATTTAACTATAACGCTCTGATCATAGTCAGACCAACATTGCTACGACCCGTATTCGCACCGACAC | 0.029 ± 0.092 | -3.3 ± 0.52
ACATTTGTCGATACAACCCTAAAATGATAATTACACCCATAAATGGATAATTATCACACCCAATTTAACTATAACGCTCTGATCATAGTCAGACCAACATTGCTACGACCCGTATTCGCACCGACAC | -0.544 ± 0.14 | -3.17 ± 0.19
ACATTTGTCGATACAACCCTAAAATGATAATTACACCCATAAATGGATAATTATCACCCCCAATTTAACTATAACGCTCTGATCATAGTCAGACCAACATTGCTACGACCCGTATTCGCACCGACAC | -1.16 ± 0.21 | -3.44 ± 0.12
ACATTTGTCGATACAACCCTAAAATGATAATTACACCCATAAATGGATCATTATCACACCCAATTTAACTATAACGCTCTGATCATAGTCAGACCAACATTGCTACGACCCGTATTCGCACCGACAC | -1.24 ± 0.25 | -4.03 ± 0.13
ACATTTGTCGATACAACCCTAAAATGATAATTACACCCATAAATGGATCATTATCACCCCCAATTTAACTATAACGCTCTGATCATAGTCAGACCAACATTGCTACGACCCGTATTCGCACCGACAC | -1.4 ± 0.051 | -4.03 ± 0.42
ACATTTGTCGATACAACCCTAAAATGATAATTACACCCATAAATTCATAATTATCACACCCAATTTAACTATAACGCTCTGATCATAGTCAGACCAACATTGCTACGACCCGTATTCGCACCGACAC | -2.19 ± 0.3 | -4.55 ± 0.13
ACATTTGTCGATACAACCCTAAAATGATAATTACACCCATAAATTCATAATTATCACCCCCAATTTAACTATAACGCTCTGATCATAGTCAGACCAACATTGCTACGACCCGTATTCGCACCGACAC | -1.84 ± 0.085 | -4.67 ± 0.055
ACATTTGTCGATACAACCCTAAAATGATAATTACACCCATAAATTCATCATTATCACACCCAATTTAACTATAACGCTCTGATCATAGTCAGACCAACATTGCTACGACCCGTATTCGCACCGACAC | -1.06 ± 0.37 | -4.888 ± 0.035
ACATTTGTCGATACAACCCTAAAATGATAATTACACCCATAAATTCATCATTATCACCCCCAATTTAACTATAACGCTCTGATCATAGTCAGACCAACATTGCTACGACCCGTATTCGCACCGACAC | -1.16 ± 0.18 | -4.56 ± 0.18
